Results reported in publication PMC9006298.
pKd: −log10 of the molar value.

Target: p.Arg127Gln GPIbα (amino acids Met1-Glu301) (human) (UniProt P07359)
Assay: SPR

UniProt P07359, sequence (P07359 17-301 R127Q): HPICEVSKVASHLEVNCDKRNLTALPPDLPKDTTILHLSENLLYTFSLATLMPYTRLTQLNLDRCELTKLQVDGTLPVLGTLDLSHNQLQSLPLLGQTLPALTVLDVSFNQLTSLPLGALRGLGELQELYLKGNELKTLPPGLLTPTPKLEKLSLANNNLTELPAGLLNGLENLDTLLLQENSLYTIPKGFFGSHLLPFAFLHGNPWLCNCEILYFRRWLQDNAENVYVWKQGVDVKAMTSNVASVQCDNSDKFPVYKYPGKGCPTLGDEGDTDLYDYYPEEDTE

pKd: 5.69
Substance: VWF A1 domain (domain or fragment)
